Reference: patent US20090158455A1, “COMPOSITIONS AND METHODS FOR MODULATING LYSINE PRODUCTION” (priority 2005, published 2009)

B1: Arabidopsis LL-DAP-AT: LL-DAP aminotransferase encoded by Arabidopsis locus At4g33680 (SEQ ID NO: 7), recombinant protein (protein, listed as Arabidopsis thaliana)
chain: MSSTHQLVSSMISSSSSTFLAPSNFNLRTRNACLPMAKRVNTCKCVATPQEKIEYKTKVSRNSNMSKLQAGYLFPEIARRRSAHLLKYPDAQVISLGIGDTTEPIPEVITSAMAKKAHELSTIEGYSGYGAEQGAKPLRAAIAKTFYGGLGIGDDDVFVSDGAKCDISRLQVMFGSNVTIAVQDPSYPAYVDSSVIMGQTGQFNTDVQKYGNIEYMRCTPENGFFPDLSTVGRTDIIFFCSPNNPTGAAATREQLTQLVEFAKKNGSIIVYDSAYAMYMSDDNPRSIFEIPGAEEVAMETASFSKYAGFTGVRLGWTVIPKKLLYSDGFPVAKDFNRIICTCFNGASNISQAGALACLTPEGLEAMHKVIGFYKENTNIIIDTFTSLGYDVYGGKNAPYVWVHFPNQSSWDVFAEILEKTHVVTTPGSGFGPGGEGFVRVSAFGHRENILEACRRFKQLYK
B2: CT390: LL-DAP aminotransferase encoded by ct390 of Chlamydia trachomatis (SEQ ID NO: 9), His-Tag fusion (protein, listed as Chlamydia trachomatis)
chain: MKRNPHFVSLTKNYLFADLQKRVAQFRLENPQHTVINLSIGDTTQPLNASVAEAFASSIARLSSPTTCRGYGPDFGLPALRQKLSEDFYRGFVDAKEIFISDGAKVDLFRLLSFFGPNQTVAIQDPSYPAYLDIARLTGAKEIIALPCLQENAFFPEFPEDTHIDILCLCSPNNPTGTVLNKDQLRAIVHYAIEHEILILFDAAYSTFISDPSLPKSIFEIPDARFCAIEINSFSKPLGFAGIRLGWTVIPQELTYADGHFVIQDWERFLSTTFNGASIPAQEAGVAGLSILPQLEAIHYYRENSDLLRKALLATGFEVFGGEHAPYLWVKPTQANISDRDLFDFFLREYHIAITPGIGFGRSGSGFVRFSSLGKREDILAACERLQMAPALQS
modifications: His-Tag

Legend:
Type in all cases: biochemical
[1] = target: T1, Arabidopsis LL-DAP-AT (At4g33680) (Arabidopsis thaliana, UniProt Q93ZN9); test: Quantitative reverse assay coupled to Ddh, pure recombinant LL-DAP-AT; conditions: 30° C.
T1 construct: The recombinant protein lacks the first 39 amino acids of the At4g33680 protein; hexa-His (N); S-TAG (N); made in house; host or cells: E. coli BL21-CodonPlus-RIPL
Description: (§1) For enzyme assays of crude proteins, extracts were prepared by grinding tissue in liquid nitrogen with 100 mM HEPESKOH (pH 7.6), followed by centrifugation at 10,000 g for 15 min, and then buffer exchange using an Amicon Ultra 30,000 MWCO filter. […] Reactions were incubated at 30° C. and the ΔA (440 nm) measured continuously. […] The reaction was incubated at 30° C., and the decrease in A340 was measured. […] The reaction was run to completion, determined by monitoring the increase in A340.
For this reason quantitative coupled assays were developed to assess the enzyme activity in both the reverse and forward directions. […] The reaction sequence is shown in Scheme 1.

[2] = target: T1, Arabidopsis LL-DAP-AT (At4g33680); test: Quantitative forward assay coupled to 2-OG dehydrogenase, pure recombinant LL-DAP-AT; conditions: for Vmax: forward assay; for Forward (biosynthetic) activity disfavored compared with the reverse activity: initial rate, forward versus reverse
Description: FIG. 4. […] The forward assay was conducted in two steps. […] The aminotransferase was assayed in the second step.
as §1, with “A340. […] The kinetic constants were calculated by nonlinear regression analysis using GraphPad Prizm version 4.03.” for “A340.”
The overall reaction series is shown in Scheme 2.
Thio-NADH has an absorbance maximum at 398 nm, which can be discerned from NADPH, which has an absorbance maximum at 340 nm. FIG. 4 illustrates such a reaction. […] Two plots are shown using 0.55 and 0.055 mM m-DAP.

LL-DAP transaminase [3] = test: Quantitative forward assay of purified microbial LL-DAP transaminases
Description: (§2) Enzyme assays were performed as described above in Examples I and II.
(§3) The catalytic properties of sll0480, BF2643, Dhaf—3980, MTH52, and SfumDRAFT0821 were studied in greater detail using purified enzymes to determine their kinetic constants using quantitative forward and reverse assays.

LL-DAP transaminase [4] = test: Quantitative reverse assay of purified microbial LL-DAP transaminases; conditions: reverse
Description: as §2, §3

LL-DAP-AT (At4g33680) = target: T2, LL-DAP-AT (At4g33680) (Arabidopsis thaliana, UniProt Q93ZN9); test: Reverse OAB assay of pure recombinant LL-DAP-AT, temperature and pH optimum; conditions: data not shown
T2 construct: The recombinant protein lacks the first 39 amino acids of the At4g33680 protein; hexa-His (N); S-TAG (N); made in house; host or cells: E. coli BL21-CodonPlus-RIPL
Description: as §1, with “A340. […] The kinetic constants were calculated by nonlinear regression analysis using GraphPad Prizm version 4.03.” for “A340.”
The kinetic properties of the pure recombinant At4g33680 enzyme were studied using several different assays. […] Most aminotransferases require pyridoxal phosphate as a cofactor (Liepman and Olsen, 2004). The Lys residue at position 305 in the At4g33680 protein is predicted to be the pyridoxal phosphate ligand. […] The enzyme was also found to show a temperature optimum of 36° C. and a pH optimum of 7.6 when HEPESKOH buffer was used, and 7.9 when Tris HCl buffer was used (data not shown).

CT390 [5] = target: T3, CT390 (Chlamydia trachomatis serovar D, UniProt O84395); test: Quantitative reverse assay of pure CT390; conditions: reverse assay, saturating substrates
T3 construct: His-Tag (N); made in house; host or cells: E. coli

CT390 [6] = target: T3, CT390; test: Quantitative forward assay of pure CT390; conditions: saturating substrates
Description: All enzyme assays were carried out essentially as described in Example I. Incubation temperature was 30° C. Kinetic constants were determined by varying substrate concentrations while keeping the co-substrate level constant at the concentration described below. Kinetic data were analyzed by non-linear regression analysis using GraphPad Prizm Version 4.03.
Quantitative assay of the physiologically forward reaction was carried out sequentially in a pre-reaction to generate THDP from m-DAP followed by an LL-DAP aminotransferase assay. […] The pre-reaction was run to completion, monitored by the increase in absorbance at 340 nm resulting from NADPH formation. The aminotransferase reaction was monitored at 398 nm to measure the formation of thioNADH. […] Subsequently, the aminotransferase assay was initiated by addition of CT390, bringing the total reaction volume to 1 mL.

Row | Molecule | Vmax ([1]; pH 7.5) | Vmax ([1]; pH 7.5, listed as LL-DAP-AT) | Vmax [2] | Vmax ([2]; listed as LL-DAP-AT) | Forward (biosynthetic) activity disfavored compared with the reverse activity [2] | Forward (biosynthetic) activity disfavored compared with the reverse activity ([2]; listed as A. thaliana enzyme) | Vmax F (LL-DAP transaminase [3]) | Vmax R (LL-DAP transaminase [4]) | pH optimum (LL-DAP-AT (At4g33680); HEPESKOH buffer) | pH optimum (LL-DAP-AT (At4g33680); Tris HCl buffer) | Temperature optimum (LL-DAP-AT (At4g33680)) | Vmax (CT390 [5]) | Vmax (CT390 [6])
1 | B1 | 22.3 ± 0.3 μmol min^−1 mg^−1 protein | 22.3 μmol min^−1 mg^−1 protein | 0.38 ± 0.01 μmol min^−1 mg^−1 protein | 0.38 μmol min^−1 mg^−1 protein | 50 fold | approximately 60 fold | 0.8 µmol/min/mg | 12 µmol/min/mg | 7.6 | 7.9 | 36 °C | – | –
2 | B2 | – | – | – | – | – | – | – | – | – | – | – | 0.59 μmol min^−1mg proteins^−1 | 0.38 μmol min^−1mg proteins^−1
